# Reference: US20110038869A1 (Genmab, published 2011)
# T1: biotinylated CD32bECDHis (human, UniProt P31994 43-223, limits assumed, biotinylated (sites not given))
# T1 sequence (looked up): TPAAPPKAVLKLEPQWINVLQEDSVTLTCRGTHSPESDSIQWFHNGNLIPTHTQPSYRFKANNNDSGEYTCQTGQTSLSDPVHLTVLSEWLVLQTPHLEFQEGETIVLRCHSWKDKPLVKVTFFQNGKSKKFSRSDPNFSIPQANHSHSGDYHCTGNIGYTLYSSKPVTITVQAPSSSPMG
# T2: full length CD32b2 on transfected IIA1.6 cells (human, UniProt P31994-2 43-291)
# T2 construct: whole, on cells; also called IIA1.6-CD32b2
# T2 sequence (looked up): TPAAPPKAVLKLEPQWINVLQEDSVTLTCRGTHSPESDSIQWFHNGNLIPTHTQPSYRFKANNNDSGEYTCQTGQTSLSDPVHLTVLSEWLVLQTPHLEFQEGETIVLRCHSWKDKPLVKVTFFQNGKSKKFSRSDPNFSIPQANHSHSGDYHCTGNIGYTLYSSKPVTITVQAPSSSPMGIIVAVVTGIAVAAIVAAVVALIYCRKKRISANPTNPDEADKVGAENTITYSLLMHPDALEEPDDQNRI
# T3: CD32bECDHis (human, UniProt P31994 43-223, limits assumed)
# T3 construct: Produced in HEK-293F cells; also called extracellular domain of CD32b with C-terminal His tag; soluble CD32b
# T3 sequence (looked up): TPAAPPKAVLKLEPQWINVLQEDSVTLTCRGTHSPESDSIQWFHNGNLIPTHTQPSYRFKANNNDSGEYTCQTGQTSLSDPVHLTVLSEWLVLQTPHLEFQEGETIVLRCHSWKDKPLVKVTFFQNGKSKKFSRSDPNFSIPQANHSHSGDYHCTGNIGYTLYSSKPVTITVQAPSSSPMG
# T4: full length CD32a on stably transfected IIA1.6 cells (human, UniProt P12318 34-317)
# T4 construct: whole, on cells; also called IIA1.6-CD32a; CD32a-expressing IIA1.6 cells
# T4 sequence (looked up): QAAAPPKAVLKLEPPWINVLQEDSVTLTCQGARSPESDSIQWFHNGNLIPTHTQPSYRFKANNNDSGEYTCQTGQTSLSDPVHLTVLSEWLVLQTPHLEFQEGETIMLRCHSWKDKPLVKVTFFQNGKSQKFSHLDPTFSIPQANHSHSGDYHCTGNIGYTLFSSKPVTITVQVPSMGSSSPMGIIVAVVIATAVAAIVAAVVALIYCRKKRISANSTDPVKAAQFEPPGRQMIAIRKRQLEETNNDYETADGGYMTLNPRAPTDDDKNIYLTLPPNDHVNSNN
# How the values were obtained:
# biotinylated CD32bECDHis = biological target: T1, biotinylated CD32bECDHis; assay: competition ELISA, competitor 028
# Protocol: ELISA wells were coated overnight at 4° C. with anti-CD32b HuMabs serially diluted in PBS. The ELISA wells were washed with PBS, blocked for one hour at room temperature with 2% (v/v) chicken serum (Gibco, Paisley, Scotland) in PBS and washed again with PBS. Subsequently, the immobilized antibodies were incubated with biotinylated CD32bECDHis serially diluted in PBSTC. After washing with PBS/Tween, bound biotinylated CD32bECDHis was incubated with Streptavidin-poly-HRP (Sanquin, Amsterdam, The Netherlands) for 1 hr at RT an the reaction was developed as described supra.
# To this end, ELISA wells coated with anti-CD32b HuMabs were incubated in the presence of an excess of CD32b-specific antibody and the predetermined concentration of biotinylated CD32bECDHis in fluid phase. The reaction was developed as described.
# [1] = biological target: T2, full length CD32b2 on transfected …; assay: flow cytometry on IIA1.6-CD32b2 cells
# Protocol: (§1) After harvesting and counting, IIA1.6 cells stably transfected with full length CD32a and CD32b (van den Herik-Oudijk et al., 1994), control IIA1.6 cells and Daudi-luc cells were resuspended in PBS (1×10⁶ cells/ml). Cells were put in 96-well V-bottom plates (100 μl/well) and washed twice with FACS buffer (PBS supplemented with 0.1% BSA and 0.02% Na-azide). Thereafter, 50 μl of serially diluted HuMab in FACS buffer was added to the cells and incubated for 30 minutes at 4° C. After washing three times with FACS buffer, 50 μl of phycoerythrin (PE)-conjugated rabbit anti-human IgG (Jackson ImmunoResearch Europe), diluted 1:200 in FACS buffer, was added. After 30 minutes at 4° C. (in the dark), cells were washed three times, and specific binding of the HuMabs was detected by flow cytometry on a FACSCalibur (BD Biosciences). […] Binding curves were analyzed using non-linear regression (sigmoidal dose-response with variable slope) using GraphPad Prism V4.03 software (GraphPad Software, San Diego, Calif., USA).
# To analyze binding of anti-CD32b HuMabs to CD32b1 and CD32b2, IIA1.6 cells transfected with full length CD32b1 or CD32b2 (van den Herik-Oudijk et al., 1994) were prepared as described supra. The assay was performed as described supra. Flow cytometry was performed on a FACS Canto II (BD Biosciences).
# CD32bECDHis = biological target: T3, CD32bECDHis; assay: TR-FRET competition against HuMab-KLH-AlexaFluor 647
# Source text: To study the interaction of anti-CD32b HuMabs with CD32b and CD32a in more detail TR-FRET technology was applied. To this end, CD32bECDHis and CD32aECDHis were labeled with a fluorescent donor molecule directed against the histidine tag (Anti-6×His Europium3+, PerkinElmer, Boston Mass.).
# Briefly, all dilutions were made in 0.5× Lance detection buffer (PerkinElmer, Boston Mass.) supplemented with 0.2% BSA (obtained via dilution of 7.5% BSA Stabilizer solution, cat: CR84-100, PerkinElmer) and 0.03% (v/v) Tween-20 (Riedel de Haen, Seelze, Germany). CD32bECDHis and CD32aECDHis were diluted to 0.5 μg/ml. […] Anti-6×His Europium3+ (PerkinElmer, Boston Mass.) was diluted to 0.15 μg/ml. A 4-fold serial dilution of the tested HuMab antibody was made in a 96 wells non-binding plate (cat. 650261, Greiner Bio-one, Frickenhausen, Germany), ranging from 10 μg/ml-0.04 ng/ml. […] After overnight incubation at 4° C. in the dark, fluorescence was measured using an EnVision 2101 Multilabel reader (PerkinElmer, Boston, Mass.) applying the following settings; Lance/Delfia dual mirror, emission filter 615-665 nm, excitation filter 320 nm, delay time 60 μs, window 100 μs, 100 flashes, 2000 μs per cycle and bidirectional row-by-row reading. Binding curves were analyzed using non-linear regression (sigmoidal dose-response with variable slope) using GraphPad Prism V4.03 software (GraphPad Software, San Diego, Calif., USA).
# [2] = biological target: T4, full length CD32a on stably transfected …; assay: flow cytometry on IIA1.6-CD32a cells
# Protocol: as §1
# [3] = biological target: T4, full length CD32a on stably transfected …; assay: flow cytometry on IIA1.6 cells expressing full length CD32a, PE anti-human IgG, MFI
# Protocol: as §1
Binder,% residual binding (biotinylated CD32bECDHis),EC50 [1],IC50 (CD32bECDHis),EC50 [2],binding result [3],% of maximal Fab-mediated inhibition (CD32bECDHis)
"Antibody 038 (antibody, human IgG1, V domains shown, Human antibody; also called HuMab 038) VH: QVQLVESGGGVVQPGRSLRLSCAASGFTFSTYGMHWVRQAPGKGLEWVAVISHDGSDKYYADSVKGRFTISRDNSKNTLYLQMNSLRAEDTAVYYCARDQSIIETFDYWGQGTLVTVSS VL: EIVLTQSPATLSLSPGERATLSCRASQSVSSYLAWYQQKPGQAPRLLIYDASNRATGIPARFSGSGSGTDFTLTISSLEPEDFAVYYCQQRSNWGFTFGPGTKVDIKR",317%,270 pM,370 pM,3480 pM,–,–
"Antibody 024 (antibody, V domains shown, also called HuMab 024) VH: QVQLVQSGAEVKKPGASVKVSCKASGYTFTSYGLSWVRQAPGQGLEWMGWISPYNGNTHYAQKLQGRVTMTTDTSTSTAYMDLRSLRSDDTAVYYCARDSAAHGMDVWGQGTTVTVSS VL: DIQMTQSPSSLSASVGDRVTITCRASQGISSWLAWYQQKPEKAPKSLIYAASSLQSGVPSRFSGSRSGTDFTLTISSLQPEDFATYYCQQYNSYPYTFGQGTKLEIKR",34%,1960 pM,450 pM,–,no binding (tested: about 7e-8 M),~70%
"Antibody 026 (antibody, V domains shown, Human antibody; also called HuMab 026) VH: QVQLVQSGAEVKKPGASVKVSCKASGYTFTSYGLSWVRQAPGQGLEWMGWISAYNGNTNYAQKLQGRVTMTTDTSTSTAYMDLRSLRSDDTAVYYCARDSAAHGMDVWGQGTTVTVSS VL: DIQMTQSPSSLSASVGDRVTITCRASQGISSWLAWYQQKPEKAPKSLIYAASSLQSGVPSRFSGSRSGTDFTLTISSLQPEDFATYYCQQYNSYPYTFGQGTKLEIKR",3%,–,300 pM,–,no binding (tested: about 7e-8 M),~70%
"Antibody 028 (antibody, V domains shown, List 1 gives no VL for antibody 028; The VL is therefore uncertain; also called HuMab 028) VH: QVQVVQSGAEVKKPGASVKVSCKTSGYTFTSYGISWVRQAPGQGLEWMGWISAYNGNTKYAQKLQGRLTMTTDTSTTTAYMELRSLRSDDTAVYYCARDSAAHGMDVWGQGTTVSVSS VL: DIQMTQSPSSLSASVGDRVTITCRASQGISSWLAWYQQKPEKAPKSLIYAASSLQSGVPSRFSGSRSGTDFTLTISSLQPEDFATYYCQQYNSYPYTFGQGTKLEIKR",15%,2180 pM,350 pM,–,no binding (tested: about 7e-8 M),~70%
"Antibody 020 (antibody, V domains shown, also called HuMab 020) VH: QVQLVQSGGEVKKPGASVKVSCKTSGYTFTSYGISWVRQAPGQGLEWMGWISAYNGNTKYAQKLQGRLTMTTDTSTTTAYMELRSLRSDDTAVYYCARDSAAHGMDVWGQGTTVTVSS VL: DIQMTQSPSSLSASVGDRVTITCRASQGISSWLAWYQQKPEKAPKSLIYAASSLQSGVPSRFRGSGSGTDFTLTISSLQPEDFATYYCQQYNSYPYTFGQGTKLEIKR",13%,–,350 pM,–,no binding (tested: about 7e-8 M),~70%
"Antibody 022 (antibody, V domains shown, also called HuMab 022) VH: QVQLVQSGAEVKKPGASVKVSCKASGYTFTSYGLSWVRQAPGQGLEWMGWISPYNGNTHYAQKLQGRVTMTTDTSTSTADMDLRSLRSDDTAVYYCARASAAHGMDVWGQGTTVTVSS VL: DIQMTQSPSSLSASVGDRVTITCRASQGISSWLAWYQQKPEKAPKSLIYAASSLQSGVPSRFSGSRSGTDFTLTISSLQPEDFATYYCQQYNSYPYTFGQGTKLEIKR",27%,–,440 pM,–,no binding (tested: about 7e-8 M),~70%
